Data taken from article PMC2570331.

Experiments:
Assay in all cases: split reporter (BiFC, NanoBiT); CFP 1-158 on the N-terminus of α12.2 (WT, Bdel1 or Bdel2), CFP 159-238 on the C-terminus of β3core; HEK-293 cells co-transfected with α2δ1 and an RFP (mCherry or DsRed-Monomer, pooled); median of the cyan/red ratio of single cells
[1] = molecular target: WT α12.2 tagged with the CFP 1–158 fragment (rat)
[2] = molecular target: Bdel1 α12.2 tagged with the CFP 1–158 fragment (rat)
[3] = molecular target: Bdel2 α12.2 tagged with the CFP 1–158 fragment (rat)

WT α12.2 tagged with the CFP 1–158 fragment (rat), sequence (Q02294 whole entry, the tested form may be a part): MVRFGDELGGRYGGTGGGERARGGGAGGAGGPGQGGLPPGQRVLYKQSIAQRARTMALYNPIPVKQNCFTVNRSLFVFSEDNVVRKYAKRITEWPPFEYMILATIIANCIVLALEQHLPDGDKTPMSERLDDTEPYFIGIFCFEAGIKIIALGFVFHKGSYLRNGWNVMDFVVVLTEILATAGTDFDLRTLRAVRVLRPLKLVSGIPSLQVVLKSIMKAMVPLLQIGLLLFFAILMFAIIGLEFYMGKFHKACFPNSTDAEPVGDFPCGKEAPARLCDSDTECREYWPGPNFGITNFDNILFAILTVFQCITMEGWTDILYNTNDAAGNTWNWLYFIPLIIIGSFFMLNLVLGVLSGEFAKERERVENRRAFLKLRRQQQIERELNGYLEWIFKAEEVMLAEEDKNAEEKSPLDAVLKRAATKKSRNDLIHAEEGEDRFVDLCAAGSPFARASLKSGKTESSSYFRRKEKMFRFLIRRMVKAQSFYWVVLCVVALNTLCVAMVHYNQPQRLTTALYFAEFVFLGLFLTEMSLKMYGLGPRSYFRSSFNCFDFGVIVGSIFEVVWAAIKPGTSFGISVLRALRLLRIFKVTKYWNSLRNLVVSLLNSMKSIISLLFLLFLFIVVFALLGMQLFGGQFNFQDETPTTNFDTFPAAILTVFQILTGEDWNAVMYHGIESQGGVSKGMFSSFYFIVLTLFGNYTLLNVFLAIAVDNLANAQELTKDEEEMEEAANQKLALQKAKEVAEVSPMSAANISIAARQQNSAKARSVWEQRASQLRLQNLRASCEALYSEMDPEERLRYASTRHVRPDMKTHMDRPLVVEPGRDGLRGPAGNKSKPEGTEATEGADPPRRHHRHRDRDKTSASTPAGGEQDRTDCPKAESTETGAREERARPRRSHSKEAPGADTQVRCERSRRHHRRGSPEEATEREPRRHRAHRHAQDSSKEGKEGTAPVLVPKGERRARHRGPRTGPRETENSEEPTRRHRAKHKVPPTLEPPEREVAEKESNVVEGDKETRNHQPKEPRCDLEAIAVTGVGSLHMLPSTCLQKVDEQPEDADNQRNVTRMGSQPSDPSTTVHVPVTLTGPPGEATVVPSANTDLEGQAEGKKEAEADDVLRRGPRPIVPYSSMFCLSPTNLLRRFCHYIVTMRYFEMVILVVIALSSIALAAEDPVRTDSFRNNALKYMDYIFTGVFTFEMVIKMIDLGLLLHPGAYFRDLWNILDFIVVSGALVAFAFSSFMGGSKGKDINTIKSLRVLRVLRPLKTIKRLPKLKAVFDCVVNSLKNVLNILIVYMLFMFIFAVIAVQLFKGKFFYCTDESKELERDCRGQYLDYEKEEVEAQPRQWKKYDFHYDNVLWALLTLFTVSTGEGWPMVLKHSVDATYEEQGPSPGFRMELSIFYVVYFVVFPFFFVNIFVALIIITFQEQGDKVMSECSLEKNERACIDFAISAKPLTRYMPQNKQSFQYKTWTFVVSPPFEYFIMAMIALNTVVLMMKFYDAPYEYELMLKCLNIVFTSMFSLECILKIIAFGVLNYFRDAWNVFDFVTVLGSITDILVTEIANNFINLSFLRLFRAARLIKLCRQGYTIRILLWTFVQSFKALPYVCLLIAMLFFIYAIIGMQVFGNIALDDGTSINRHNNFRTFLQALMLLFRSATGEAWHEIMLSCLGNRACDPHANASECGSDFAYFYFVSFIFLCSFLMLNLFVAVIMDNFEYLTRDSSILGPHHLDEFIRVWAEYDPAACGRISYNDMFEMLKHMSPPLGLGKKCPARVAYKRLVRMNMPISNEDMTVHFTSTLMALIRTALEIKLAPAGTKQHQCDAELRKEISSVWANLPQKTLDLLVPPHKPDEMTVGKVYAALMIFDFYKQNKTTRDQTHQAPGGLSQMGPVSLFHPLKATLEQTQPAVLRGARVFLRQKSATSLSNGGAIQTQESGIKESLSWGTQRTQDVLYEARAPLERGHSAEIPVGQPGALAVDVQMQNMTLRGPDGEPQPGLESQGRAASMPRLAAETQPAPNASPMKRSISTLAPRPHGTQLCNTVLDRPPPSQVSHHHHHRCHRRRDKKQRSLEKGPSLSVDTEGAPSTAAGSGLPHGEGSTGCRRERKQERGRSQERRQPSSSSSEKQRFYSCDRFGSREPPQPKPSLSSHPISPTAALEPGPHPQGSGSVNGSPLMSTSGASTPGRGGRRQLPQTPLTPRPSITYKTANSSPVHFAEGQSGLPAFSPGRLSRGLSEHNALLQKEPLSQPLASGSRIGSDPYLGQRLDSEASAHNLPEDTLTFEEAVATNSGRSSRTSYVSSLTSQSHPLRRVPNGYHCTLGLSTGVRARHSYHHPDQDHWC

median ratio of cyan (BiFC) to red fluorescence [1]: 0.23
median ratio of cyan (BiFC) to red fluorescence [2]: 0.77
median ratio of cyan (BiFC) to red fluorescence [3]: 0.32
Substance: β3-core tagged with the CFP 159–238 fragment (from UniProt P54287 16-366) (domain or fragment)
